What is called IC50 is the concentration that inhibits the measured activity by half. A low value points to inhibition by little substance. The term koff denotes the first-order rate constant of dissociation. Low readings indicate a long-lived complex, high ones a short-lived complex. One may read the kon as the rate constant with which the complex forms. For orientation: Kd means a measure of binding affinity in units of concentration. Broadly, the EC50 is the concentration at which the effect is half-maximal. Higher therefore signals lower potency in that assay.

Data on four molecules can be found in patent US20220356245A1 (FORTY SEVEN, published 2022).

In assay [1] the target is T1, human CD47 (hCD47) expressed on cells (human, UniProt Q08722 19-323).
T1 construct: Transfected CHO cells or endogenous CD47 of human cells; also called CHO-hCD47; CD47 on Raji cells
The assay is described as follows: flow cytometry, hCD47-CHO cells, competition with His-hSIRPα. For orientation: Flow cytometry measures light scatter and fluorescence of single cells or particles in a stream.
Procedure: (§1) Human CD47-transfected cells (3×10⁵ cells/well of 96-well plate) were first incubated at +4° C. for 30 minutes with serial dilutions of anti-CD47 antibodies or isotype control antibody (in mIgG2a or mIgG1 format). […] The percentage inhibition was plotted against antibody concentration and the IC50 values were calculated using a nonlinear regression analysis model of the GraphPad Prism software.

In assay [2] the target is T2, hu-sCD47-6His; extracellular domain of human CD47 antigen with 6His-tag (human).
T2 construct: also called hCD47-his; soluble hCD47
In words: SPR Biacore T200, antibody captured, hCD47-his analyte.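 Also: antibodies captured on anti-IgG (Fc) CM5 chip, five sequential 10 min antigen injections at rising concentrations, reference flow cell and antigen-free cycle as controls, 1:1 model fit.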 In general terms: SPR reads the build-up and loss of mass on a sensor chip optically.
Source text: (§2) An anti-human or anti-mouse IgG (Fc) was first immobilized on the surface of Serie S Sensor Chips CM5 using the human or mouse antibody capture and amine coupling kits, following the manufacturer's instructions (GE Healthcare). […] The mouse, chimerized or humanized antibodies to be tested were then captured onto the appropriate anti-mouse or anti-human IgG surface in all flow cells except flow cell 1 used as control, at concentration and contact time adjusted so that ˜300 RU were captured on the surface. Binding kinetics were studied by passing increasing concentrations of hCD47-his in a series of five 10 minute injections through all flow cells at a rate of 30 μL/min. […] Following the final injection, buffer was passed across each flow cell for 60 minutes (mouse) or 30 minutes (human) to monitor the dissociation of bound antigen. Regeneration of the binding surface was carried out at the end of the cycle by flowing 3 M MgCl₂ for 60 s at 20 μL/min followed by 10 mM glycine-HCl, pH 1.7 for 180 s at 10 μl/min (for human) or by flowing 10 mM glycine-HCl, ph 1.7 for 360 s at 10 μl/min (for mouse). A second cycle with the same antibodies but no antigen was run as a control. Kinetics binding constants were estimated by non-linear fitting of the sensogram data to the 1:1 binding model provided by the Biacore T200 evaluation software.

The target in assay [3] is T2, hu-sCD47-6His; extracellular domain of …. The assay is described as follows: SPR Biacore T200, antibody captured, hCD47-his analyte; exponent printed without minus sign, read as 10^-8.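 Also: antibodies captured on anti-IgG (Fc) CM5 chip, five sequential 10 min antigen injections at rising concentrations, reference flow cell and antigen-free cycle as controls, 1:1 model fit.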
Source text: as §2
In assay [4] the target is T1, human CD47 (hCD47) expressed on cells. The assay is described as follows: cell-based or functional assay.
The target of assay [5] is T3, mouse CD47 (mCD47) expressed on CHO cells (mouse, UniProt Q61735 19-303).
T3 construct: whole, on cells; also called CHO-mCD47
T3 sequence (looked up): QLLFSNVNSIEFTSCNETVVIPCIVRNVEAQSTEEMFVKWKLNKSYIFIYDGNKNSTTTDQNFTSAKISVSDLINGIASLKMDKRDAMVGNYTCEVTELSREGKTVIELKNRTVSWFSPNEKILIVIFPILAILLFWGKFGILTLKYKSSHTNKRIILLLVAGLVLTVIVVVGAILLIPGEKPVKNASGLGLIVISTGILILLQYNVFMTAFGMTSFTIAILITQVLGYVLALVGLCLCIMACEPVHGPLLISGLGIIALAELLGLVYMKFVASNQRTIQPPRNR
In words: flow cytometry, CHO-mCD47 cells.

The target in assay [6] is T1, human CD47 (hCD47) expressed on cells. The assay is described as follows: flow cytometry, Raji cells.
Procedure: Raji cells (ATCC-CLL-86; 2×10⁵ cells/well of 96-well plate) were first incubated at +4° C. for 30 minutes with serial dilutions of anti-CD47 antibodies or control isotype antibody (in mIgG2a or mIgG1 format). The cells were then washed and incubated for 30 minutes at +4° C. with a PE-conjugated F(ab)′2 goat anti-mouse IgG antibody ( 1/100 dilution, Beckman Coulter). After washings, the fluorescence of the cells was analyzed by flow cytometry on an Accuri-C6 flow cytometer (BD Biosciences).
The delta of MFI, representing the difference between the intensity measured with the tested antibody and the intensity in the absence of antibody, was calculated for each antibody concentration and the values were plotted against the antibody concentrations. The EC50 values were then calculated by using a nonlinear regression analysis model of the GraphPad Prism software.
Assay [7] shares this target. The assay is described as follows: flow cytometry, hCD47-CHO cells, competition with His-hSIRPα; upper end tied to candidate 33 by Table 5.
Procedure: as §1
The target is the same in assay [8]. In words: flow cytometry, hCD47-CHO cells, competition with His-hSIRPα; lower end tied to candidate 26 by Table 5.
Procedure: as §1
Assay [9] has the same target. The assay is described as follows: flow cytometry, CD47-transfected CHO cells.

Numbering of substitutions follows the chain as printed.

B1: Candidate 22 (VL008-AL13-8G5-8K3), mouse IgG (antibody, V domains shown)
VH: QVQLQQPGAELVKPGASVKLSCKASGYTFTTYWMHWVKQRPGQGLEWIGMIHPNSGTTNYNEKFKSKATLTVDKSSSSTYMQLSSLTSEDSAVYYCTRSHYYDGHFSYWGQGTLVTVSA
VL: DIVMSQSPSSLAVSAGEKVTMSCKSSQSLLNSRTRKNYLAWYQQKPGQSPKLLIYWASTRESGVPDRFTGSGSGTDFTLTISSVQAEDLAVYYCKQSYNLWTFGGGTRLEIK
notes: Recombinant mouse IgG2a or mIgG1 format, by assay; also called antibody 22
With B1, in assay [1], the IC50 stood at 0.482 µg/mL. Moreover, in assay [2], the koff is 0.000325 s⁻¹ and the kon is 20700 M⁻¹ s⁻¹. For the same molecule, binding in assay [3] was characterised by a dissociation constant (Kd) of 15.7 nM. Further, the “Phagocytic index, Raji cells and human macrophages, antibody at 0.125 µg/mL” value (“Phagocytic index” for short) in assay [4] is 106 Raji cells ingested per 100 macrophages. Further, the binding result in assay [5] is reported as “no binding (tested: 7.3 µg/mL highest concentration)”. In assay [6], this molecule yielded an EC50 of 0.136 µg/mL.

B2: Candidate 33 (VL008-AL17-8G5-8K7), mouse IgG (antibody, V domains shown)
VH: LVQLQQSGPELVKPGTSVKISCRSSGYTFTDYYINWVQQRPGQGLEWVGWIFPGSGLTYYNKKFKGKATLSVDKSSNTAYMLLSSLTSEDSAVYFCARPYYGSRWDYTMDYWGQGTSVTVSS
VL: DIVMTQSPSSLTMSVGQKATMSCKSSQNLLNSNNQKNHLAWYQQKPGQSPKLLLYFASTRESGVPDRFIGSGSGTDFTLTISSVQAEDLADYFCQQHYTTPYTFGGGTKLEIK
notes: Recombinant mouse IgG2a or mIgG1 format, by assay
B2 returned an IC50 in assay [1] of 1.11 µg/mL. In assay [2], this molecule returned a Kd of 0.898 nM, a koff of 6.7e-05 s⁻¹ and a kon of 74600 M⁻¹ s⁻¹. The “Phagocytic index” value in [4] was 71.4 Raji cells ingested per 100 macrophages. Moreover, the IC50 in assay [7] turned out to be 7.3 nM. For the same molecule, in assay [5], the binding result was “no binding (tested: 7.3 µg/mL highest concentration)”. The molecule further gave an EC50 in assay [6] of 0.112 µg/mL.

B3: Candidate 26 (VT008-AL6-10G3-10K1), mouse IgG (antibody, V domains shown)
VH: QVQLQQPGPELVKPGASVKLSCKASGYTFTNYWIHWLNQRPGRGLEWIGRIDPNSGGTKYNEKFKSKAILTVDKSSSTTYMQLSSLTSEDSAVYYCARGGYTMDYWGQGTSVTVSS
VL: DVVMPQTPLSLPVSLGDHASISCRSSQSLLHSNGNTYLHWYLQKPGQSPKLLIYKVSYRFSGVPDRISGSGSGTDFTLKISRVEAEDLGVYFCFQSTHVPWTFGGGTKLEIK
notes: as for B2
In assay [1], B3 came in with an IC50 of 0.359 µg/mL. In addition, in [2], the Kd amounted to 1.87 nM, the koff came to 0.000372 s⁻¹ and the kon came out at 200000 M⁻¹ s⁻¹. Moreover, the “Phagocytic index” value in assay [4] was 85.3 Raji cells ingested per 100 macrophages. Besides, the IC50 in assay [8] was found to be 2.4 nM. Also, it took 0.07 µg/mL to reach a half-maximal effect in assay [6] (EC50).

B4: Candidate 29 (VT008-AL6-20G7-20K7), mouse IgG (antibody, V domains shown)
VH: QVQLQQSGTELAKPGASVKLSCKASGYTFINYWIYWVKERPGQVLEWIGYINPRSDDTKYNQKFRDRATLTADKSSTTAYLQLNSLTNDDSALYYCARGGFTMDFWGQGTSVTVSS
VL: B3 VL with P5T, H18Q, K50N, I67F, F94S, S96G, W101Y
For the molecule B4, the binding result in assay [9] is “binds”.
